From patent US20040121341A1 (RESEARCH FOUNDATION OF CITY UNIVERSITY OF NEW YORK, published 2004)

Molecular target: Nogo receptor (NgR)
Experiment: cell-based or functional assay

Binder | neurite outgrowth of cerebellar neurons on MAG-expressing CHO cells, peptide at 15 uM (FIG. 4) [fold]
VAFELPSRNVTVNETEREFVYSERSGLLLT [MAG peptide MAG(442-471)] | 2
AAARDTVQCLCVVKSNPEPSVAFELPSRNV [MAG peptide MAG(422-451)] | 2
